From patent US20190040130A1 (Alector, published 2019)
Numbering of substitutions follows the chain as printed. Names may count otherwise. Values belong to the binder of their own block, whether it stands above or below them.

Experiments:
[1] = biological target: T1, human TREM2/DAP12 fusion protein in BW5147.G.1.4 NFAT-luciferase reporter cells (human, UniProt O43914 41-113, limits assumed); assay: cell-based or functional assay
[2] = biological target: T1, human TREM2/DAP12 fusion protein in …; assay: cell-based or functional assay; remark: listed apart in the source
[3] = biological target: T2, human TREM2 expressed on cells (human, UniProt Q9NZC2 19-230); assay: FACS, BW cells
T2 construct: also called huT2 BW; cell expressed TREM2
T2 sequence: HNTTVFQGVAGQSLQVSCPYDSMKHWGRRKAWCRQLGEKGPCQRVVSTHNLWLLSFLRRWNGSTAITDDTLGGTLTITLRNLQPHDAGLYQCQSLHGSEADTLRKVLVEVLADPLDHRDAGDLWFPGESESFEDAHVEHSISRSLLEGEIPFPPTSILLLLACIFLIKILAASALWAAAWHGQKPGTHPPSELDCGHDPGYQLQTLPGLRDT
Experimental: To examine cell binding of anti-TREM2 antibodies, recombinant, human TREM2-expressing BW5147. G.1.4 cells (ATCC® TIB48™) were established by stably expressing either mouse TREM2 or human TREM2 together with Dap12 using viral infection. Cells were harvested by scraping, washed in PBS, counted and plated on 96-well U bottom plates at 1×10⁵ cells/well. The plates were spun at 1,400 rpm for 3 minutes and primary anti-TREM2 or control antibodies were added in FACS buffer (PBS+2% FBS) and incubated on ice for one hour. Cells were subsequently centrifuged as before and washed thrice with FACS buffer. Cells were then incubated with anti-human PE conjugated secondary antibody (BD Biosciences) in FACS buffer for 30 minutes on ice. Cells were again washed thrice with FACS buffer and analyzed on a BD FACS Canto. Binding was measured as mean fluorescence intensity in the […].

[4] = biological target: T1, human TREM2/DAP12 fusion protein in …; assay: cell-based or functional assay; remark: listed apart in the source
[5] = biological target: T1, human TREM2/DAP12 fusion protein in …; assay: cell-based or functional assay; remark: listed apart in the source
[6] = biological target: T2, human TREM2 expressed on cells; assay: cell-based or functional assay
[7] = biological target: T1, human TREM2/DAP12 fusion protein in …; assay: cell-based or functional assay; remark: listed apart in the source
[8] = biological target: T1, human TREM2/DAP12 fusion protein in …; assay: cell-based or functional assay; remark: listed apart in the source
[9] = biological target: T1, human TREM2/DAP12 fusion protein in …; assay: cell-based or functional assay; remark: listed apart in the source
[10] = biological target: T1, human TREM2/DAP12 fusion protein in …; assay: cell-based or functional assay; remark: listed apart in the source

B2: AL2p huIgG1 E430G (antibody, V domains shown)
VH: QVQLQQSGPELVKPGASLKISCKASGYAFSSSWMNWVKQRPGKGLEWIGRIYPGDGDTNYNGEFRVRATLTADTSSTTAYMQLSSLTSEDSAVYFCARLLRNQPGESYAMDYWGQGASVTVSS
VL: DVVMTQTPLSLPVSLGDQASISCRSSQSLVHSNGYTYLHWYLQKPGQSPKLLIYKVSNRFSGVPDRFSGSGSGTDFTLKISRVEADDLGVYFCSQSTRVPYTFGGGTKLEIK
- EC50 (read off the curve); NFAT:luciferase luminescence, BWZ reporter cells co-cultured 1:1 with THP-1 cells, 6 h [1]: ~0.3 µg/mL

B3: AL2p-58 huIgG1 PSEG (antibody)
heavy: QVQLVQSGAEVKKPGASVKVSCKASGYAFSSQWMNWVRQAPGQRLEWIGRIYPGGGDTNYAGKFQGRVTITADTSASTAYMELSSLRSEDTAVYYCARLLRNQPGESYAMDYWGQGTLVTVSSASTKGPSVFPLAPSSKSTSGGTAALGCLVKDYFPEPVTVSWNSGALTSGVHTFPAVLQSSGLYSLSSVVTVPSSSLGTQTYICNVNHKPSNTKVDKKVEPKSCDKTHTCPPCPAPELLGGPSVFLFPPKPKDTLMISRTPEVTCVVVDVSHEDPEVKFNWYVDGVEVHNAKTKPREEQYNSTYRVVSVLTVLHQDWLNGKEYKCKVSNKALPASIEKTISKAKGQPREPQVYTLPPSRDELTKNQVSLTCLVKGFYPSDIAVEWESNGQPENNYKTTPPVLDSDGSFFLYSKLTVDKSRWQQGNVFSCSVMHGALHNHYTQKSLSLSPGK
light: DVVMTQSPDSLAVSLGERATINCRSSQSLVHSNRYTYLHWYQQKPGQSPKLLIYKVSNRFSGVPDRFSGSGSGTDFTLKISRVEAEDVGVYYCSQSTRVPYTFGQGTKLEIKRTVAAPSVFIFPPSDEQLKSGTASVVCLLNNFYPREAKVQWKVDNALQSGNSQESVTEQDSKDSTYSLSSTLTLSKADYEKHKVYACEVTHQGLSSPVTKSFNRGEC
- plate bound signal activation, fold over AL2p [4]: 10 fold

B4: AL2p-58 (antibody, V domains shown)
VH: QVQLVQSGAEVKKPGASVKVSCKASGYAFSSQWMNWVRQAPGQRLEWIGRIYPGGGDTNYAGKFQGRVTITADTSASTAYMELSSLRSEDTAVYYCARLLRNQPGESYAMDYWGQGTLVTVSS
VL: DVVMTQSPDSLAVSLGERATINCRSSQSLVHSNRYTYLHWYQQKPGQSPKLLIYKVSNRFSGVPDRFSGSGSGTDFTLKISRVEAEDVGVYYCSQSTRVPYTFGQGTKLEIK
- EC50 (read off the curve); NFAT:luciferase luminescence, BW reporter cells, soluble IgG [5]: ~1 µg/mL

B5: AL2p-60 (antibody, IgG1, V domains shown)
VH: B4 VH with A16S, R44G, I48M, G62R, T74E, A76T
VL: GVVMTQTPLSLSVTPGQPASISCRSSQSLVHSNRYTYLHWYLQKPGQSPQLLIYKVSNRRSGVPDRFSGSGSGTDFTLKISRVEAEDVGVYYCSQSTRVPYTFGQGTKLEIK
- viability EC50, dendritic cells D558 [6]: 0.152 nM
- viability EC50, dendritic cells D559 [6]: 0.244 nM
- viability EC50, dendritic cells D560 [6]: 0.178 nM
- viability EC50, macrophages D559 [6]: 0.194 nM
- viability EC50, macrophages D560 [6]: 0.154 nM

B9: AL2p-58 msFc (antibody)
chain 1: B4 VH
chain 2: B4 VL
- EC50 (read off the curve); NFAT:luciferase luminescence, BWZ reporter cells, soluble IgG [8]: ~0.7 µg/mL

More lines, now with the values ahead:

- EC50 (read off the curve); NFAT:luciferase luminescence, BWZ reporter cells co-cultured 1:1 with THP-1 cells, 6 h [1]: ~1 µg/mL
- EC50 (read off the curve); NFAT:luciferase luminescence, BWZ reporter cells, soluble antibody, 6 h [2]: ~2 µg/mL
- Cell binding (FOB) [3]: 79 fold over background
B1: AL2p (parental mouse anti-TREM2 antibody) (antibody, human IgG1, V domains shown)
VH: B2 VH
VL: B2 VL
notes: Mouse variable regions; tested as Fab, as human-mouse chimera (human IgG1 Fc) and as msIgG1; see assay; also called 9F5; 9F5a

- EC50 (read off the curve); NFAT:luciferase luminescence, BWZ reporter cells, plate bound IgG [7]: ~3 µg/mL
- EC50 (read off the curve); NFAT:luciferase luminescence, BWZ reporter cells, soluble IgG [8]: ~0.8 µg/mL
B6: AL2p-31 msFc (antibody, V domains shown)
VH: B4 VH with A16S, R44G, I48M, G62R, T74E, A76T
VL: B5 VL with R34G

- Cell binding (FOB) [3]: 91 fold over background
B7: AL2p-h43 (antibody, IgG1, V domains shown)
VH: B4 VH with V18L, Q32S, G55D, A61N, K63E, Q65R, G66V, V68A, I70L, Y95F
VL: B5 VL with G1D, R34G, R60F
notes: IgG1; Fab in monovalent BLI

- Cell binding (FOB) [3]: 126 fold over background
B8: AL2p-h90 (antibody, IgG1, V domains shown)
VH: B4 VH with Q32S, G55D, G62Q
VL: DVQMTQSPSSLSASVGDRVTITCRSSQSLVHSNGYTYLHWYQQKPGKSPKLLIYKVSNRFSGVPSRFSGSGSGTDFTLTISSLQPEDFATYYCSQSTRVPYTFGGGTKVEIK
notes: IgG1; Fab in monovalent BLI

- Soluble luciferase activation at 10 µg/ml [9]: 6.52 fold over control
- Cell binding (FOB) [3]: 86 fold over background
B10: AL2p-h76 (antibody, IgG1, V domains shown)
VH: B4 VH with Q32S, G55D, G62Q, V68A, Y95F
VL: B4 VL with R34G, K79T, R82S, V83L, E84Q, G89A, Q105G, L109V
notes: IgG1; Fab in monovalent BLI

- Luciferase activation plate bound 33 nM IgG [10]: 22.1 FOC
B11: AL2p-14 (antibody, IgG1, V domains shown)
VH: B4 VH with A16S, Q32H, R44G, I48M, G55D, G62Q, T74E, A76T
VL: B5 VL with Q27R, R34G, R60F

- EC50 (read off the curve); NFAT:luciferase luminescence, BW reporter cells, soluble IgG [5]: ~2 µg/mL
B12: AL2p-59 (antibody, V domains shown)
VH: B4 VH with A16S, Q32H, R44G, I48M, G55E, D57Q, G62Q, F64R, T74E, A76T
VL: B5 VL with S25T, R34Q, R60V
